Test: soluble on expression in E. coli; label from the status in PepcDB or PDB records

Sequence	soluble on expression in E. coli
KEATWVTDKPLTLKIHMHFRDKWVWDENWPVAKESFRLTNVKLQSVANKAATNSQEQFNLMMASGDLPDVVGGDNLKDKFIQYGQEGAFVPLNKLIDQYAPHIKAFFKSHPEVERAIKAPDGNIYFIPYVPDGVVARGYFIREDWLKKLNLKPPQNIDELYTVLKAFKEKDPNGNGKADEVPFIDRHPDEVFRLVNFWGARSSGSDNYMDFYIDNGRVKHPWAETAFRDGMKHVAQWYKEGLIDKEIFTRKAKAREQMFGGNLGGFTHDWFASTMTFNEGLAKTVPGFKLIPIAPPTNSKGQRWEEDSRQKVRPDGWAITVKNKNPVETIKFFDFYFSRPGRDISNFGVPGVTYDIKNGKAVFKDSVLKSPQPVNNQLYDMGAQIPIGFWQDYDYERQWTTPEAQAGIDMYVKGKYVMPGFEGVNMTREERAIYDKYWADVRTYMYEMGQAWVMGTKDVDKTWDEYQRQLKLRGLYQVLQMMQQAYDRQYKN	soluble
KERERLEEKLEDANERIAELVKLEERQRIARDLHDTLGQKLSLIGLKSDLARKLIYKDPEQAARELKSVQQTARTSLNEVRKIVSSMKGIRLKDELINIKQILEAADIMFIYEEEKWPENISLLNENILSMCLKEAVTNVVKHSQAKTCRVDIQQLWKEVVITVSDDGTFKGEENSFSKGHGLLGMRERLEFANGSLHIDTENGTKLTMAIPNNSK	not soluble
KESCKMFIGGLNWDTTEDNLREYFGKYGTVTDLKIMKDPATGRSRGFGFLSFEKPSSVDEVVKTQHILDGKVIDPKRAIPRDEQDKTGKIFVGGIGPDVRPKEFEEFFSQWGTIIDAQLMLDKDTGQSRGFGFVTYDSADAVDRVCQNKFIDFKDRKIEIKRAEPRH	soluble
KGKSFIWIKRQLDPKVAEEVKALGLENFVFEKELKRHYPMGNLFAHVIGFTDIDGKGQEGLELSLEDSLHGEDGAEVVLRDRQGNIVDSLDSPRNKAPKNGKDIILSLD	not soluble
KGLMSKVKVITRGEATRLINKEDAVVVDLRQRDDFRKGHIAGAINLLPSDIKANNVGELEKHKSQPIIVVDGSGMQAQEPASALNKAGFEKVFVLKEGIAGWSGENLPLVRGK	not soluble
KHGPLHPIPNRPVLTRARASLPLVLYIDRFLGGVFSKRRIPKRTQFGPVEGPLVRGSELKDCYIHLKVSLDKGDRKERDLHEDLWFELSDETLCNWMMFVRPAQNHLEQNLVAYQYGHHVYYTTIKNVEPKQELKVWYAASYAEFVNQKIHD	soluble
KHSCIAVIDAGSTGSRLHIYSYDTDDTNTPIHIEEIWNKKIKPGFASIQPNSVTIDAYLTMLLADAPIHNIPVYFYATAGMRLLPQSQQKKYYDELEYWFRQQSQWQLVEAKTITGNDEALFDWLAVNYKLDTLKSVQNKSVGVMDMGGASVQIVFPMPKNAEISKHNQVELNIYGQNINLYVHSFLGLGQTEMSHQFLNSPSCFANDYPLPDGESGQGNAPSCKEEVTSLMNSVHKVNQQIQPLLALNPVNEWYSIGGISNLASSQLFHFENSELTNQSLLQQGDNQICHQQWDILNGQYPDDEYLYQYCLLSSYYYALMVDGYGINPNQTIHYIPPEQNLDWTIGVVLHRA	soluble
KIDDGTELKLKGEKLRYVSRGGLKLEKALAVFNLSVEDMITIDIGASTGGFTDVMLQNGAKLVYAVDVGTNQLVWKLRQDDRVRSMEQYNFRYAEPVDFTEGLPSFASIDVSFISLNLILPALAKILVDGGQVVALVKPQFEAGREQIGKNGIVRESSIHEKVLETVTAFAVDYGFSVKGLDFSPIQGGHGN	not soluble
KITGLLDGDRVIVFDKNGISKLSARHYGNVEGNFLSLSLVEALYLINLGWLEVKYKDNKPLSFEELYEYARNVEERLCLKYLVYKDLRTRGYIVKTGLKYGADFRLYERGANIDKEHSVYLVKVFPEDSSFLLSELTGFVRVAHSVRKKLLIAIVDADGDIVYYNMTYVKP	soluble
KLKARSIKIQRRMDAILLRMPIFGDIVRKGTIARWGRTTATLIAAGVPLVDVLDSTAGAAGNLIYEEATREIRTRVIQGLSMTSGMRATELFPNMMLQMSSIGEESGSLDDMLNKAAEFYEDEVDNAVGRLSAMMEP	not soluble
KNFHVVLEAAWLVRDVKTADDAIGVAISEAGKRLNPKLDFVEVDVGTTSCPVCGEPFSSVFIAANTALVGLIFEMKVFDAESAEHAERIAKSVIGKSLRDVP	not soluble
KPAPSAEHSYAEGEGLVKVFDNAPAEFTIFAVDTKGVARTDGGDPFEVAINGPDGLVVDAKVTDNNDGTYGVVYDAPVEGNYNVNVTLRGNPIKNMPIDVKCIEGANGEDSSFGSFTFTVAAKNKKGEVKTYGGDKFEVSITGPAEEITLDAIDNQDGTYTAAYSLVGNGRFSTGVKLNGKHIEGSPFKQVLGNPGKKNPEVKSFTTTRTAN	soluble
KQNSLMGITGGLTARYISEKYFAMICGAQVELNISQRGWDELFEVPGENGEPVEDPTRKYTRKMTYLDIPFLAHLAFGNEKGLQFFINAGPQIGLLIGESESMENIDMNALTDTQKAVYGDKIQNKFDYGIAGGGGIEFRTKKAGSFLLEGRYYFALSDFYSTTKKDYFSRAAHGTITVKLTYLFDLK	not soluble
KQVENYDSWEDLVSSIDTIERKDDGTLEIYLTWKNGAISHHPSTITNKKCPQKMLQFYESHLTFRENE	soluble
KSTVEKSTVGQKVAIVREDTGTIAELAEKALGNMVDIVYAGSDLKEAEEAVKKEKAPAIIVIPKGFSQSLESGEKARLEIVWYLRGTGLSEAVSTGTISSLIESLKVQLASFLLNDPKKAQLLFDPLEIVQHTYLRGSLFKNHSPEAIMNVFYSQN	soluble
KTIAIIGAGIVGVSTAIWLQRDGHQVVLIDRAGPAEGTSYGNGGVLASCSIVPVTTPGLIAKAPRMLFSPNEPLFLRWGYLPRLAPWLLRYLRRANARDATQTAAAMAPIVGDSLADHLALAQGTGAEKWVVPSDYLFIYNDRAHFQGDAFGWNLRRQNGFVWDEMEAEEFRGYDPIFSSDLRFAVRLKDHGRITDPGQYVKDLAAHVVASGGQLIQADVEDIARENGRVTGVRAGGRTIPCDAAVIATGVWSGPLARKLGLEVPLEAERGYHIEFWNPNFMPKSPVMVAARKFVATPMEGRLRLAGVVEFGGLDAGPSRAPIELLKRSAAAVFPGLKADEVTEWLGHRPAPADSIPVIGELPHLKGAFTGFGHHHVGLTGGPKTGRILAQLIAGRQPNIDL	not soluble

Sequence	soluble on expression in E. coli
KVQSTFAKYSRVRSMTGMTGAEAAKRLLNSQGIYDVQVRKVAGNLTDHYDPRNKTLNLSESVYDSPSVAAIGVAAHECGHAIQDNTEYAPLKIRGAIVPVVNIGTQLSWPM	not soluble
KVWDRAVDFLAANESRVRTETRRIGGADFLVWRWIQPSASCDKILVIPSKVWQGQAFHLDRRNSPPNSLTPCLKIRNMFDPVMEIGDQWHLAIQEAILEKCSDNDGIVHIAVDKNSREGCVYVKCLSPEYAGKAFKALHGSWFDGKLVTVKYLRLDRYHHRFPQALTSNTPLKPSNKHMNSMSHLRLRTGLTNSQGSS	soluble
LFKPNYHFFPITGWMNDPNGLIFWKGKYHMFYQYNPRKPEWGNICWGHAVSDDLVHWRHLPVALYPDDETHGVFSGSAVEKDGKMFLVYTYYRDPTHNKGEKETQCVVMSENGLDFVKYDGNPVISKPPEEGTHAFRDPKVNRSNGEWRMVLGSGKDEKIGRVLLYTSDDLFHWKYEGAIFEDETTKEIDCPDLVRIGEKDILIYSITSTNSVLFSMGELKEGKLNVEKRGLLDHGTDFYAAQTFFGTDRVVVIGWLQSWLRTGLYPTKREGWNGVMSLPRELYVENNELKVKPVDELLALRKRKVFETAKSGTFLLDVKENSYEIVCEFSGEIELRMGNESEEVVITKSRDELIVDTTRSGVSGGEVRKSTVEDEATNRIRAFLDSCSVEFFFNDSIAFSFRIHPENVYNILSVKSNQVKLEVFELENIWL	soluble
LFQKLHQSLQVGEKEEDMYELLISSSMTTVMADAAWLEIRDNKGGLKAFQNSNIDEYDVFEIKKALRKNQVNISSEPQYIKDILSYPHTEKIKHLDYKSFLLIPLTSNNQLIGTLVLLKNLNDGFDKEMVDIIFTFVSQASISIKNFRLMSDAIQTERYQEELKIAKD	not soluble
LGASWHRPDKCCLGYQKRPLPQVLLSSWYPTSQLCSKPGVIFLTKRGRQVCADKSKDWVKKLMQQLPVTAR	soluble
LGGAQETAETMAKESMVLLKNTDDTLPLSGDESVLLTGPGVDSNGNNTRALMQHGGWTLGWQGASAGGPFPRQNLLEAELRARVGSLTHVPTSYENTTWWAGEGDGGNQQSDENGNFDFTAEQRSRVESAGPESDVVVVVLGEGTHNEGFGDRDELVLDESQQALLDTVVESTDDSAPIIGVMLAGSPRGSPETFSQLDALLFAGQPGSDGGVAIAETLVGEYNPSGKLPFSWPENVGTTPVQYTRYDPTSTGGTDNTAIYEYGHGLSYTDF	not soluble
LIGYVRVSTNDQNTDLQRNALNCAGCELIFEDKISGTKSERPGLKKLLRTLSAGDTLVVWKLDRLGRSMRHLVVLVEELRERGINFRSLTDSIDTSTPMGRFFFHVMGALAEMERELIVERTKAGLETARAQGRIGGRRPKLTPEQWAQAGRLIAAGTPRQKVAIIYDVGVSTLYKRFPAGDK	soluble
LKDTLHNSELDDAERSSSDINNLFHSKPVKDISALDLNASLGNFQEIIIYDEHNNKLFETSNDNTVRVEPGYEHRYFDRVIKKRYKGIEYLIIKEPITTQDFKGYSLLIHSLENYDNIVKS	not soluble
LKQKVENLFNEKCGEALGLKQAVKVPFALFESFPEDFYVEGLPEGVPFRRPSTFGIPRLEKILRNKAKIKFIIKKPEMFETAIKES	soluble
LLLYIHGFNSSPLSMKANLMREYCAQHRPDIKVIVPQLPCFPEQAAQLLLDIVEQYKDDYNIGLVGSSLGGYMSTWLNAKYGFKAVVVNPAVKPYELLVDYLGEQTNPYTRETYTLEACHIDELKALDVQSIASPHSFWLLQQTEDEVLDYRQAVDKFAKAKQTVEQGGDHSFVGFERYPAKIIEFLE	not soluble
LNKWMKELSKTTSLDPVKPVDVLLTENDITIKNIRDMNRLRPFGTDFSRPIFEMDDLSVSSVKAIGQQKNHLKLTLGESNIAALFWQNGHLEPELQDEQPINILGSVQINEWNGNQSPQ	not soluble
LPKVSEDHLAARRSQILDGARRCFAEYGYDGATVRRLEEVTGLSRGAIFHHFKDKDGLFLALAHEDATRMADVVAHEGLVQVMRDMLAQPEQFDWLGTRLEIARRLRNDPDFRRSWSQRSAELTEATMARLARQKSAGRLRDDVPTDVLIGYLDLVLDGLVARIASGHAGDNLSAVLDLVEESVRRRD	not soluble
LSKVVIRRLPPTLTKEQLQEHLQPMPEHDYFEFFSNDTSLYPHMYARAYINFKNQEDIILFRDRFDGYVFLDNKGQEYPAIVEFAPFQKAA	soluble
LSNGQGSRVLHVVQTLYPFSSVTEEELNFEKGETMEVIEKPENDPEWWKCKNARGQVGLVPKNYVVVLSDGPALHPAH	soluble
LTLPGIANLRRLRVDDVAIPKVEIVAVPVDIGKEDLVAVFREHGFSRLPVYRETLDQPLGLVLLKDLALQHGFNGNGSFDLKTLLRPLLYAPPSMPIGVLLQKMQRERVHMALVIDEYGGVDGLVTIEDLIETVIGEIEDEHDEVEGPLWTLEKPGVYMAQSRTPLDEFEAEIGLRLRREEEDEEIDTLGGLV	not soluble

Reference: the DeepSol protein solubility set
